According to patent US20140377215A1:

Legend:
Experiment in all cases: 1H-15N HSQC NMR titration of 15N-labeled CBD with mini-collagen
[1] = biological target: [PROXYL-(POG)5POA(POG)4]3
[2] = biological target: [PROXYL-(POG)3POA(POG)6]3
[3] = biological target: [PROXYL-(POG)4POA(POG)5]3
[4] = biological target: [PROXYL-(POG)6POA(POG)3]3

Measured: Kd

Chain of collagen-binding domain (CBD), s3b (Gly893-Lys1008) peptide derived from Clostridium histolyticum cl (Q9X721 1003-1118 limits assumed): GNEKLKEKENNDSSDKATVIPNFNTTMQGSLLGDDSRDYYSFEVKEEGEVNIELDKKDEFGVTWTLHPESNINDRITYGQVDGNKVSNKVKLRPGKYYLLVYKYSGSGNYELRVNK

collagen-binding domain (CBD), s3b (Gly893-Lys1008) peptide derived from Clostridium histolyticum cl (from UniProt Q9X721 1003-1118)
< 100 µM: all assays above
